Positions count from the first letter of the chain named.

Here are results for 16 molecules from US20150037348A1 (AbbVie / Abbott, published 2015).

The chains are these.
T1: recombinant human IL-12 (rhIL-12) (human, UniProt P29459 23-219; P29460 23-328)
T1 construct: disulfide-linked p35/p40 heterodimer (p70); also called IL-12 p70; rec. human IL12
T1 sequence (looked up) 1: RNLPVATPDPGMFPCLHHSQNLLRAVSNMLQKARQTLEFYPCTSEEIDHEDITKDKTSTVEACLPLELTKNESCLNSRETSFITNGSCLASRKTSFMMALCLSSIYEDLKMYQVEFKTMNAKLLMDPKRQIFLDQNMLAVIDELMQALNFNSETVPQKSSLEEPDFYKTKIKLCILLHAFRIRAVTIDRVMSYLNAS
T1 sequence (looked up) 2: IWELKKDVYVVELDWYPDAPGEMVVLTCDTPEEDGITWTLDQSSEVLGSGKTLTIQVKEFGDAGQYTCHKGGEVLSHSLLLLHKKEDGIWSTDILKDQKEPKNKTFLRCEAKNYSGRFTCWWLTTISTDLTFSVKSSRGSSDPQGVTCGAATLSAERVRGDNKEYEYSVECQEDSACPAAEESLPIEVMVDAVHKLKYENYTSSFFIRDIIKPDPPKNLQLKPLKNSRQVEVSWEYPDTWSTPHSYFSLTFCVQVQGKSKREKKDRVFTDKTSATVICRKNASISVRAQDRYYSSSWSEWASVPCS

T2: human IL-12 (human, UniProt P29459 23-219; P29460 23-328)
T2 construct: recombinant human IL-12 heterodimer (p35/p40, disulfide-linked); also called hIL-12; rhIL-12
T2 sequence (looked up) 1: T1 sequence (looked up) 1
T2 sequence (looked up) 2: T1 sequence (looked up) 2

B1: L3.3R3M-B3 (scFv, V domains shown)
VH: QVQLVQSGGGVVQPGRSLRLSCAASGFTFSSYGMHWVRQAPGKGLEWVAFIRYDGSNKYYADSVKGRFTISRDNSKNTLYLQMKSLRAEDTAVYYCKTHGSHDNWGQGTMVTVSS
VL: SYVLTQPPSVSGTPGQRVTISCSGGRSNIGSNTVKWYQQLPGTAPKLLIYGNDQRPSGVPDRFSGSKSGTSASLAITGVQAEDEADYYCQSYDRGFTGSMVFGTGTKVTVL
notes: scFv clone
B2: L3.3R3M-G8 (scFv, V domains shown)
VH: B1 VH
VL: B1 VL with F96S, T97Y, G98P, S99A, M100L, V101R
notes: scFv clone
B3: 99-F11 (scFv, V domains shown)
VH: B1 VH
VL: B1 VL with R94S, M100R
notes: scFv clone
B4: 99-G11 (scFv, V domains shown)
VH: B1 VH
VL: B1 VL with R94S, G95R, M100R
notes: scFv clone
B5: L3.3R3M-H6 (scFv, V domains shown)
VH: B1 VH
VL: B1 VL with F96N, T97W, G98P, S99N, M100S, V101N
notes: scFv clone
B6: L3.3R3M-H11 (scFv, V domains shown)
VH: B1 VH
VL: B1 VL with F96M, T97I, G98P, S99A, M100L, V101T
notes: scFv clone
B7: 99-G7 (scFv, V domains shown)
VH: B1 VH
VL: B1 VL with D93L, R94K, G95S, F96R, T97A, G98F, M100R
notes: scFv clone
B8: L3.3R3M-G7 (scFv, V domains shown)
VH: B1 VH
VL: B1 VL
notes: scFv clone
B9: L3.3R3M-A3 (scFv, V domains shown)
VH: B1 VH
VL: B1 VL
notes: scFv clone
B10: 99-E9 (scFv, V domains shown)
VH: B1 VH
VL: B1 VL with R94S, M100R
notes: scFv clone
B11: 78-35 (scFv, V domains shown)
VH: B1 VH with K97T, H99S, H102Y, N104Y
VL: B1 VL with R94S, G95S, F96L, M100R
notes: scFv
B12: 170-25 (scFv, V domains shown)
VH: B1 VH with K97T, H102Q, N104T
VL: B1 VL with R94S, G95S, F96L, T97R, M100R
notes: scFv
B13: 136-24 (scFv, V domains shown)
VH: B1 VH with K97T
VL: B1 VL with R94N, G95A, F96V, G98A, M100K
notes: scFv
B14: 149-9 (scFv, V domains shown)
VH: B1 VH with Q107H
VL: B1 VL with D93E
notes: scFv
B15: 170-23 (scFv, V domains shown)
V domain 1: B1 VH with K97T
V domain 2: B1 VL with S99A, M100R, F102W
notes: scFv
B16: 101-11 IgG1 (antibody, V domains shown)
VH: B1 VH with K97T
VL: B1 VL with M100R
notes: IgG1

In the first test the target is T1, recombinant human IL-12 (rhIL-12). Nature of the test: BIAcore SPR, IL-12 on chip. (In general: Surface plasmon resonance follows binding to a sensor surface in real time, without labels.)
As a reminder, the koff is the first-order rate constant of dissociation. Turning to B1, the koff was found to be 5.51 s⁻¹.

With B2, the koff was determined as 5.55 s⁻¹.

Turning to B3, the off-rate constant (koff) is 0.0054 s⁻¹.

On to B4, for which the koff was determined as 0.0043 s⁻¹. Regarding B5, the koff stood at 5.69 s⁻¹.

In the case of B6, the koff came out at 3.95 s⁻¹.

As to B7, the koff is 0.0048 s⁻¹.

B8: the dissociation rate constant (koff) is 4.24 s⁻¹. The same measure, in the same setting: under B9 stands 5.37 s⁻¹; under B10, 0.0054 s⁻¹.

For a further test, the target named is T2, human IL-12. The test can be described thus: SPR (BIAcore), IL-12 chip. The source says:
The system utilizes the optical properties of SPR to detect alterations in protein concentrations within a dextran biosensor matrix. Proteins are covalently bound to the dextran matrix at known concentrations. […] To determine the off rate (koff), on rate (kₒₙ), association rate (Ka) and dissociation rate (Kd) constants, BIAcore kinetic evaluation software (version 2.1) was used.
B11 gave a koff of 0.0499 s⁻¹.

Molecule B12 registered a koff of 0.0005 s⁻¹. In turn, B13 returned a koff of 0.00089 s⁻¹. B14 displayed a dissociation rate constant (koff) of 0.00354 s⁻¹.

As to B15, the koff worked out at 0.001 s⁻¹.

A further test has as its target T2, human IL-12. Nature of the test: RB assay: 125I-hIL-12 binding to PHA blasts. The method, then: PHA blast cells isolated as described above, were washed once and resuspended in binding buffer to a cell density of 2×10⁷ cells/ml. […] The cell pellet was examined for cell bound radioactivity using a gamma counter. […] Incubations were carried out in duplicate.
A word on the IC50: it is the concentration at which inhibition is half-maximal. Molecule B11 had a concentration for half-maximal inhibition (IC50) of 400 nM. The molecule B12 had an IC50 of 0.05 nM. The same measure, in the same setting: the value for B13 was 1 nM; that for B14 was 0.18 nM; that for B16 was 1.6 nM. B15 showed an IC50 of 0.2 nM. This IC50 lies about 8-fold lower than the previous one.
